Columns and labels:
Human RAGE = biological target: T1, Human RAGE (human, UniProt Q15109 23-404); test: flow cytometry on human colorectal cancer samples
T1 construct: also called receptor for advanced glycation end products; AGER

[1] = biological target: T2, V-C1-C2 construct of human RAGE (human, UniProt Q15109 23-404); test: binding to cells expressing RAGE domain constructs fused to eGFP
T2 construct: also called ABC construct; not shown: eGFP of the vector pEGFP-N2, fused in frame at the C-terminus
Excerpt: The extracellular portion of the RAGE protein contains three domains with similarities to the IgG family. The three domains are V, C1, and C2 (variable, constant 1, and constant 2, respectively). RS07 binds the V domain while RS15 binds an integrated V-C1 domain (FIG. 2B). RAGE constructs used in the present exemplary embodiment include a V-C1-C2 construct starting at amino acid 23 of SEQ ID NO:1 (AQNITA . . . ), immediately following the native signal sequence. The C1-C2 construct starts at amino acid 117 of SEQ ID NO:1 (VYQIPG . . . ), and the C2 construct starts at amino acid 249 of SEQ ID NO:1 (VAPGG . . . ). Domains were predicted on Genbank and by crystal structure. To map antibody binding to individual RAGE domains, the IL2 signal sequence was cloned into pEGFP-N2, into which portions of RAGE were cloned in-frame with IL2 signal sequence (IL2ss) at the 5′ end and in-frame with eGFP at the 3′ end. In addition to the extracellular portions of RAGE, all constructs contain the RAGE transmembrane and C-terminal regions, so the GFP signal should be intracellular, while the IL2ss ensures the RAGE V, C1, and/or C2 motifs are extracellular, and accessible to antibodies. The ABC construct in FIG. 2B includes the V, C1, and C2 domains, and initiates at aa 23 of SEQ ID NO: 1. The BC construct in FIG. 2B includes the C1 and C2 domains, and initiates at aa 116 of SEQ ID NO: 1. […]

T2 sequence (Q15109 23-404): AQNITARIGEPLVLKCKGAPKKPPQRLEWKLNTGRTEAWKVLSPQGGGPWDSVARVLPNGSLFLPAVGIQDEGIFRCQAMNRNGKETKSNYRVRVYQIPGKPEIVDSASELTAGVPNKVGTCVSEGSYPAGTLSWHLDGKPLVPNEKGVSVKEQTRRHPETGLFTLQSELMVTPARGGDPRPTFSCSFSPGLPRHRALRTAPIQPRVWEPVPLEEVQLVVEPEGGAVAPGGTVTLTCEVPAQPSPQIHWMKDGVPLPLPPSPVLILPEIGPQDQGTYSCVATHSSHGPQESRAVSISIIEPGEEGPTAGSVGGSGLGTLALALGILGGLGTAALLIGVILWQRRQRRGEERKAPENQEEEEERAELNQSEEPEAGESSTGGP
T1 sequence (Q15109 23-404): as above

binding result (Human RAGE): binds | binding result [1]: binds
B1: RS15 (antibody, V domains shown)
VH: QVQLQQSGAELVRPGTSLKVSCKASGYAFTNYLIEWVNQRPGQGLEWIGVINPGSGGTHYNEKFKGKATLTADKSSSTAYMQLSSLTSDDSAIYFCARSRAVRAMDYWGQGTSVTV
VL: DIVMTQSQKFMSTSVGDRVSVTCKASQNVGTNVAWYQQKPGQSPKSLIYSASYRYSGVPDRFTGSGSGTDFTLTISNVQSEDLAEYFCQQYNSYFFTFGAGTKLELKR
notes: Mouse monoclonal IgG from a hybridoma (BALB/c immunised with human RAGE extracellular domain); also called RFT01; anti-RAGE (RS15)
